Target: NbNRC2-6xHis-3xFLAG, affinity-purified from N. benthamiana leaves (Nicotiana benthamiana)
Assay: SEC; purified NbNRC2-6xHis-3xFLAG on Superdex 200 Increase 10/300 GL, 25 mM Tris-HCl pH 8, 500 mM NaCl, 5% glycerol, 1 mM EDTA, 4°C; size estimated from a protein standard curve

- stoichiometry N: 2
Substance: NbNRC2-6xHis-3xFLAG, affinity-purified from N. benthamiana leaves (natural protein)
